Assay results reported in paper PMC3633659.

Molecular target: Mamu-B*010:01 (Chinese rhesus macaque | not stated)
Assay: radioligand binding

Binder | IC50 [µM]
EREQTLNQL [… (C. trachomatis ATP-dependent zinc protein)] | > 20
DRLALLANL [… (C. trachomatis recC exodeoxyribonuclease-V g chain)] | > 20
KRVVINKDT [… (Y. enterocolitica Hsp60)] | > 20
RRYQKSTEL [… (E. coli derived)] | 0.291
NRAKQVIKL [… (C. trachomatis protease ATPase)] | 0.106
SRHHAFCFR [… (Aggrecan precursor p667)] | > 20
MRDHTITLL [… (C. trachomatis NADH-ubiquinone-oxidoreductase-a-chain)] | 0.008

Molecular target: Mamu-A2*01:02 (Chinese rhesus macaque | not stated)
Assay: radioligand binding

Binder | IC50 [µM]
EREQTLNQL [… (C. trachomatis ATP-dependent zinc protein)] | 13.2
DRLALLANL [… (C. trachomatis recC exodeoxyribonuclease-V g chain)] | 19.1
KRVVINKDT [… (Y. enterocolitica Hsp60)] | > 20
RRYQKSTEL [… (E. coli derived)] | 6.65
NRAKQVIKL [… (C. trachomatis protease ATPase)] | > 20
SRHHAFCFR [… (Aggrecan precursor p667)] | 2.06
MRDHTITLL [… (C. trachomatis NADH-ubiquinone-oxidoreductase-a-chain)] | > 20
